Molecular target: ClpXP (ClpX with ClpP protease) (E. coli, UniProt P0A6H1 1-424; P0A6G7 15-207)
Experiment: ultrafiltration

ClpXP (ClpX with ClpP protease), sequence (P0A6H1 whole entry, chain 1 of 2): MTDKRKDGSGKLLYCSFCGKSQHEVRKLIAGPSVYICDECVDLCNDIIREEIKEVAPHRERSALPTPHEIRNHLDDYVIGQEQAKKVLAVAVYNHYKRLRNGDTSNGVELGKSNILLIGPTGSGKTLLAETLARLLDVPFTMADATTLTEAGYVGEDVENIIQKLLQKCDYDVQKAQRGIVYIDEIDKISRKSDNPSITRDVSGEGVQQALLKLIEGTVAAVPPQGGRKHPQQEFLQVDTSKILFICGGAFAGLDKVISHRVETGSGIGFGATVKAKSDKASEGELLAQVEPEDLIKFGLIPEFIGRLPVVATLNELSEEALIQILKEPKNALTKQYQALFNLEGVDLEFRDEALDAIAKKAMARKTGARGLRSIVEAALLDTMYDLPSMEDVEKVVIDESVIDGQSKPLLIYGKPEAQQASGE
ClpXP (ClpX with ClpP protease), sequence (P0A6G7 15-207, chain 2 of 2): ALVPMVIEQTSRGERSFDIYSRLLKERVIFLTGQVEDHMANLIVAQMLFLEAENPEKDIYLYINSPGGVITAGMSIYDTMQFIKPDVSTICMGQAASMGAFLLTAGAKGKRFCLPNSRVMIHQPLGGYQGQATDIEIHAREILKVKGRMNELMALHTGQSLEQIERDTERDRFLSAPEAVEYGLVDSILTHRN

Binder | binding result
Gfp-IDR_(FtsZ) (Gfp fused to the C-terminal 67 amino acids of E. coli FtsZ, residues 317-383) (domain or fragment, UniProt P0A9A6 317-383, looked up) MDKRPEITLVTNKQVQQPVMDRYQQHGMAPLTQEQKPVAKVVNDNAPQTAKEPDYLDIPAFLRKQAD | binds
Gfp-IDR_(FtsZ) mut-1 (Ala substitutions at FtsZ positions 352 through 358) (domain or fragment, E. coli, UniProt P0A9A6 317-383, looked up) MDKRPEITLVTNKQVQQPVMDRYQQHGMAPLTQEQAAAAAAANDNAPQTAKEPDYLDIPAFLRKQAD | binds
